Legend:
[1] = molecular target: T1, CD40L over-expressed on Expi293 cells (UniProt P29965 1-261, limits assumed); experiment: flow cytometry, 100 nM antibody, CD40L-Expi293 vs parent Expi293 cells;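 further: ratio is the mean fluorescence intensity on CD40L-overexpressing Expi293 cells divided by the mean fluorescence intensity on parental Expi293 cells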
T1 construct: whole, on cells; also called cytokine over-expressing Expi293 cells
T1 sequence (looked up): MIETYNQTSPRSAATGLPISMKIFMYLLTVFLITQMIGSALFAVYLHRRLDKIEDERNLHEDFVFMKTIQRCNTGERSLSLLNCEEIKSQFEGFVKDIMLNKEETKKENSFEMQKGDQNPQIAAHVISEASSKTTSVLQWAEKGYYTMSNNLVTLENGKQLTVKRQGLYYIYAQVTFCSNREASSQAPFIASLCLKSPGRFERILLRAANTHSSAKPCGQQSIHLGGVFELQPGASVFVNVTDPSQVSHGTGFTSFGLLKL
Procedure: All incubations and washes were in buffer containing PBS+1% BSA. MFI Ratio is defined by the mean fluorescence intensity (MFI) of the cytokine over-expressing Expi293 cell over the Expi293 parent cell. […] EC50 was calculated in GraphPad Prism.

CD40L = molecular target: T2, CD40L (UniProt P29965 113-261, limits assumed); experiment: SPR (Carterra LSA), antibody amine-coupled, 1:1 model
T2 construct: SPR analyte
T2 sequence (looked up): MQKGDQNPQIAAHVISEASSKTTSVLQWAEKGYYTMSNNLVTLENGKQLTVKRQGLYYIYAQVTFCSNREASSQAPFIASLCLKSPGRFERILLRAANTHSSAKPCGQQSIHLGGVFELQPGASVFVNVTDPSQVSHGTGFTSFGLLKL

B1: CD40L-115 (VHH)
VHH: EVQLVESGGGLVQPGGSLRLSCAASGRTFSRYEMGWFRQAPGKEREFVAAVTEDGSTYYADSVKGRFTISADNSKNTAYLQMNSLKPEDTAVYYCAIAHGSSTYNWGQGTLVTVSS
- 100 nM FACS (MFI Ratio) [1]: 16.8 ratio

B2: CD40L-26 (VHH)
VHH: EVQLVESGGGLVQPGGSLRLSCAASGLTFSRYEMGWFRQAPGKEREFVAAVTEDGSINYADSVKGRFTISADNSKNTAYLQMNSLKPEDTAVYYCAAEIGYYSGGTYFSSEAWGQGTLVTVSS
- 100 nM FACS (MFI Ratio) [1]: 123 ratio
- Kd (CD40L): 0.491 nM
- koff (CD40L): 0.000211 s⁻¹
- kon (CD40L): 429000 M⁻¹ s⁻¹

B3: CD40L-102 (VHH)
VHH: EVQLVESGGGLVQPGGSLRLSCAASGLTFSRYEMGWFRQAPGKEREFVAAVTEDGSIYADSVKGRFTISADNSKNTAYLQMNSLKPEDTAVYYCAAEIGYYSGGTYFSSEAWGQGTLVTVSS
- 100 nM FACS (MFI Ratio) [1]: 1.8 ratio

B4: CD40L-111 (VHH)
VHH: EVQLVESGGGLVQPGGSLRLSCAASGDTSEINDMGWFRQAPGKEREFVAAIYPSGRNAYYADSVKGRFTISADNSKNTAYLQMNSLKPEDTAVYYCAIPHGIAGRITWGQGTLVTVSS
- 100 nM FACS (MFI Ratio) [1]: 9.7 ratio

B5: CD40L-114 (VHH)
VHH: EVQLVESGGGLVQPGGSLRLSCAASGRTFSPYIMGWFRQAPGKEREFVAEIGWRDTTLYADSVKGRFTISADNSKNTAYLQMNSLKPEDTAVYYCAARRGGDYLPTDWGQGTLVTVSS
- 100 nM FACS (MFI Ratio) [1]: 7.3 ratio

B6: CD40L-45 (VHH)
VHH: EVQLVESGGGLVQPGGSLRLSCAASGLNLSRLDMGWFRQAPGKEREFVAASSWTGANTYYADSVKGRFTISADNSKNTAYLQMNSLKPEDTAVYYCASDHYDTDIKSDVYNWGQGTLVTVSS
- 100 nM FACS (MFI Ratio) [1]: 93.9 ratio
- Kd (CD40L): 0.453 nM
- koff (CD40L): 0.000106 s⁻¹
- kon (CD40L): 234000 M⁻¹ s⁻¹

B7: CD40L-23 (VHH)
VHH: EVQLVESGGGLVQPGGSLRLSCAASGSIDRINAMGWFRQAPGKEREFVAVIYSSDGSTLYADSVKGRFTISADNSKNTAYLQMNSLKPEDTAVYYCAAEPYGSGSSLISEYDWGQGTLVTVSS
- 100 nM FACS (MFI Ratio) [1]: 44.4 ratio
- Kd (CD40L): 3 nM
- koff (CD40L): 0.000555 s⁻¹
- kon (CD40L): 185000 M⁻¹ s⁻¹

B8: CD40L-122 (VHH)
VHH: EVQLVESGGGLVQPGGSLRLSCAASGLLFSSYDMGWFRQAPGKEREFVAAISWSTGSGDDTYYADSVKGRFTISADNSKNTAYLQMNSLKPEDTAVYYCASDHYDTDTKSDVYNWGQGTLVTVSS
- 100 nM FACS (MFI Ratio) [1]: 14.2 ratio

B9: CD40L-1 (VHH)
VHH: EVQLVESGGGLVQPGGSLRLSCAASGRTFSSIYAMGWFRQAPGKEREFIAVIYWRDGSTLYADSVKGRFTISADNSKNTAYLQMNSLKPEDTAVYYCAAEPYGSGSSLISEYDWGQGTLVTVSS
- 100 nM FACS (MFI Ratio) [1]: 119 ratio
- Kd (CD40L): 0.986 nM
- koff (CD40L): 9.43e-05 s⁻¹
- kon (CD40L): 95600 M⁻¹ s⁻¹

B10: CD40L-105 (VHH)
VHH: EVQLVESGGGLVQPGGSLRLSCAASGITFSSRTMGWFRQAPGKEREFVAAIRSSGGLFYADSVKGRFTISADNSKNTAYLQMNSLKPEDTAVYYCAAQDRRHGDYYTFDYHWGQGTLVTVSS
- 100 nM FACS (MFI Ratio) [1]: 4.5 ratio

B11: CD40L-60 (VHH)
VHH: EVQLVESGGGLVQPGGSLRLSCAASGLNLSRLDMGWFRQAPGKEREFVAAVDNDDNTEYADSVKGRFTISADNSKNTAYLQMNSLKPEDTAVYYCASDHYDTDTKSDVYNWGQGTLVTVSS
- 100 nM FACS (MFI Ratio) [1]: 50.4 ratio
- Kd (CD40L): 0.118 nM
- koff (CD40L): 0.000108 s⁻¹
- kon (CD40L): 915000 M⁻¹ s⁻¹

B12: CD40L-125 (VHH)
VHH: EVQLVESGGGLVQPGGSLRLSCAASGFTFDYYTMGWFRQAPGKEREFVAVIYSSDGSTLYADSVKGRFTISADNSKNTAYLQMNSLKPEDTAVYYCAIDEGMDYDGNFYDWGQGTLVTVSS
- 100 nM FACS (MFI Ratio) [1]: 6.6 ratio
